This test concerns the target T1, SARS-CoV-2 Omicron BA.5 S ectodomain trimer (BA.5-Spike-6P) (SARS-CoV-2 Omicron BA.5, S375F | D405N | R408S | K417N | Q498R | N501Y | Y505H).
T1 construct: also called BA.5 spike (S) trimer; BA.5 S trimer
Nature of the test: cryo-EM structure. The note with it: both partners purified.

B1: ORB10 fragment antigen-binding region (Fab) (Fab, V domains shown)
VH: QVQLQQSGAELVRPGSSVKISCKASGYAFSNYWMNWVKQRPGEGLEWIGQIYPGDGDTDYNGKFKGRATLTADKSSSTAYMQLSSLTSEDSAVYFCARGDDGYYVYFDYWGQGTTLTVSS
VL: EIVLTQSPALMAASPGEKVTITCSVSSSIGSNNLHWYQQKSETSPKPWIYGTSNLASGVPVRFSGSGSGTSYSLTISTMEAEDAATYYCQQWSGYPLTFGGGTKLEIK
notes: also called ORB10 Fab
On to B1, for which the “stoichiometry N” value is 2 Fabs per S trimer.

A word on the stoichiometry N: it is a count of units in the complex or per binding partner.

(Values after publication PMC11852929 (Journal of Virology, 2025).)
